*1 amine or outer side, *2 acyl side, *3 side chain or, on linkers, in order; H or OH if unused. Side-chain parts run from the residue outwards. The star is where a group is joined. C18 diacid = O=C(O)CCCCCCCCCCCCCCCCC(=O)*; γGlu = O=C(O)[C@H](CCC(=O)[*:2])N[*:1]; Isovaleryl = CC(C)CC(=O)*; Ahx = NCCCCCC(=O)O
T1: human NPY2 receptor (human, UniProt P49146 1-381)
T1 construct: whole, on cells; also called hNPY2-R; hNPY2R
T1 sequence (looked up): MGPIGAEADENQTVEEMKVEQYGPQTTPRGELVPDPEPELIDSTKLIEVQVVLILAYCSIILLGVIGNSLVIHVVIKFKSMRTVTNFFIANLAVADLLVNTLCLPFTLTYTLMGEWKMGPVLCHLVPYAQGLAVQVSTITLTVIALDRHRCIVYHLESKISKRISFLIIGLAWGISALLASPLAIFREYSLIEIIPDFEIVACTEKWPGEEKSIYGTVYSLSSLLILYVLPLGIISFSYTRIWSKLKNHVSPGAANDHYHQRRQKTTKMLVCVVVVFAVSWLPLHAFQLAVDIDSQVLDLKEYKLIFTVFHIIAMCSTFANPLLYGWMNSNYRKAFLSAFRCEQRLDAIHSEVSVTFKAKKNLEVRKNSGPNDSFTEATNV


molecular target: T1, human NPY2 receptor; assay: RLB: displacement of 125I-PYY(1-36) from hNPY2R membranes

Row | Ki [nM] | Binder
1 | 2.92 | Isovaleryl-APEK([Ahx-γGlu-C18 diacid])PEEDATPEELQAYYVSLRHYYNWLTRQRY-NH2 (SMILES CC(C)CC(=O)N[C@@H](C)C(=O)N1CCC[C@H]1C(=O)N[C@@H](CCC(=O)O)C(=O)N[C@@H](CCCCNC(=O)CCCCCNC(=O)CC[C@H](NC(=O)CCCCCCCCCCCCCCCCC(=O)O)C(=O)O)C(=O)N1CCC[C@H]1C(=O)N[C@@H](CCC(=O)O)C(=O)N[C@@H](CCC(=O)O)C(=O)N[C@@H](CC(=O)O)C(=O)N[C@@H](C)C(=O)N[C@H](C(=O)N1CCC[C@H]1C(=O)N[C@@H](CCC(=O)O)C(=O)N[C@@H](CCC(=O)O)C(=O)N[C@@H](CC(C)C)C(=O)N[C@@H](CCC(N)=O)C(=O)N[C@@H](C)C(=O)N[C@@H](Cc1ccc(O)cc1)C(=O)N[C@@H](Cc1ccc(O)cc1)C(=O)N[C@H](C(=O)N[C@@H](CO)C(=O)N[C@@H](CC(C)C)C(=O)N[C@@H](CCCNC(=N)N)C(=O)N[C@@H](Cc1c[nH]cn1)C(=O)N[C@@H](Cc1ccc(O)cc1)C(=O)N[C@@H](Cc1ccc(O)cc1)C(=O)N[C@@H](CC(N)=O)C(=O)N[C@@H](Cc1c[nH]c2ccccc12)C(=O)N[C@@H](CC(C)C)C(=O)N[C@H](C(=O)N[C@@H](CCCNC(=N)N)C(=O)N[C@@H](CCC(N)=O)C(=O)N[C@@H](CCCNC(=N)N)C(=O)N[C@@H](Cc1ccc(O)cc1)C(N)=O)[C@@H](C)O)C(C)C)[C@@H](C)O) [Compound 95]
2 | 3.06 | Isovaleryl-APEK([Ahx-γGlu-C18 diacid])PEESATPEELQRYYVSLRHYYNWLTRQRY-NH2 (SMILES CC(C)CC(=O)N[C@@H](C)C(=O)N1CCC[C@H]1C(=O)N[C@@H](CCC(=O)O)C(=O)N[C@@H](CCCCNC(=O)CCCCCNC(=O)CC[C@H](NC(=O)CCCCCCCCCCCCCCCCC(=O)O)C(=O)O)C(=O)N1CCC[C@H]1C(=O)N[C@@H](CCC(=O)O)C(=O)N[C@@H](CCC(=O)O)C(=O)N[C@@H](CO)C(=O)N[C@@H](C)C(=O)N[C@H](C(=O)N1CCC[C@H]1C(=O)N[C@@H](CCC(=O)O)C(=O)N[C@@H](CCC(=O)O)C(=O)N[C@@H](CC(C)C)C(=O)N[C@@H](CCC(N)=O)C(=O)N[C@@H](CCCNC(=N)N)C(=O)N[C@@H](Cc1ccc(O)cc1)C(=O)N[C@@H](Cc1ccc(O)cc1)C(=O)N[C@H](C(=O)N[C@@H](CO)C(=O)N[C@@H](CC(C)C)C(=O)N[C@@H](CCCNC(=N)N)C(=O)N[C@@H](Cc1c[nH]cn1)C(=O)N[C@@H](Cc1ccc(O)cc1)C(=O)N[C@@H](Cc1ccc(O)cc1)C(=O)N[C@@H](CC(N)=O)C(=O)N[C@@H](Cc1c[nH]c2ccccc12)C(=O)N[C@@H](CC(C)C)C(=O)N[C@H](C(=O)N[C@@H](CCCNC(=N)N)C(=O)N[C@@H](CCC(N)=O)C(=O)N[C@@H](CCCNC(=N)N)C(=O)N[C@@H](Cc1ccc(O)cc1)C(N)=O)[C@@H](C)O)C(C)C)[C@@H](C)O) [Compound 96]
3 | 1.01 | Isovaleryl-APEK([Ahx-γGlu-C18 diacid])PEADATPEELQRYYIALRHYYNWLTRQRY-NH2 (SMILES CC[C@H](C)[C@H](NC(=O)[C@H](Cc1ccc(O)cc1)NC(=O)[C@H](Cc1ccc(O)cc1)NC(=O)[C@H](CCCNC(=N)N)NC(=O)[C@H](CCC(N)=O)NC(=O)[C@H](CC(C)C)NC(=O)[C@H](CCC(=O)O)NC(=O)[C@H](CCC(=O)O)NC(=O)[C@@H]1CCCN1C(=O)[C@@H](NC(=O)[C@H](C)NC(=O)[C@H](CC(=O)O)NC(=O)[C@H](C)NC(=O)[C@H](CCC(=O)O)NC(=O)[C@@H]1CCCN1C(=O)[C@H](CCCCNC(=O)CCCCCNC(=O)CC[C@H](NC(=O)CCCCCCCCCCCCCCCCC(=O)O)C(=O)O)NC(=O)[C@H](CCC(=O)O)NC(=O)[C@@H]1CCCN1C(=O)[C@H](C)NC(=O)CC(C)C)[C@@H](C)O)C(=O)N[C@@H](C)C(=O)N[C@@H](CC(C)C)C(=O)N[C@@H](CCCNC(=N)N)C(=O)N[C@@H](Cc1c[nH]cn1)C(=O)N[C@@H](Cc1ccc(O)cc1)C(=O)N[C@@H](Cc1ccc(O)cc1)C(=O)N[C@@H](CC(N)=O)C(=O)N[C@@H](Cc1c[nH]c2ccccc12)C(=O)N[C@@H](CC(C)C)C(=O)N[C@H](C(=O)N[C@@H](CCCNC(=N)N)C(=O)N[C@@H](CCC(N)=O)C(=O)N[C@@H](CCCNC(=N)N)C(=O)N[C@@H](Cc1ccc(O)cc1)C(N)=O)[C@@H](C)O) [Compound 100]
4 | 7.15 | Isovaleryl-APEK([Ahx-γGlu-C18 diacid])PEEDATLEELQRYYVSLRHYYNWLTRQRY-NH2 (SMILES CC(C)CC(=O)N[C@@H](C)C(=O)N1CCC[C@H]1C(=O)N[C@@H](CCC(=O)O)C(=O)N[C@@H](CCCCNC(=O)CCCCCNC(=O)CC[C@H](NC(=O)CCCCCCCCCCCCCCCCC(=O)O)C(=O)O)C(=O)N1CCC[C@H]1C(=O)N[C@@H](CCC(=O)O)C(=O)N[C@@H](CCC(=O)O)C(=O)N[C@@H](CC(=O)O)C(=O)N[C@@H](C)C(=O)N[C@H](C(=O)N[C@@H](CC(C)C)C(=O)N[C@@H](CCC(=O)O)C(=O)N[C@@H](CCC(=O)O)C(=O)N[C@@H](CC(C)C)C(=O)N[C@@H](CCC(N)=O)C(=O)N[C@@H](CCCNC(=N)N)C(=O)N[C@@H](Cc1ccc(O)cc1)C(=O)N[C@@H](Cc1ccc(O)cc1)C(=O)N[C@H](C(=O)N[C@@H](CO)C(=O)N[C@@H](CC(C)C)C(=O)N[C@@H](CCCNC(=N)N)C(=O)N[C@@H](Cc1c[nH]cn1)C(=O)N[C@@H](Cc1ccc(O)cc1)C(=O)N[C@@H](Cc1ccc(O)cc1)C(=O)N[C@@H](CC(N)=O)C(=O)N[C@@H](Cc1c[nH]c2ccccc12)C(=O)N[C@@H](CC(C)C)C(=O)N[C@H](C(=O)N[C@@H](CCCNC(=N)N)C(=O)N[C@@H](CCC(N)=O)C(=O)N[C@@H](CCCNC(=N)N)C(=O)N[C@@H](Cc1ccc(O)cc1)C(N)=O)[C@@H](C)O)C(C)C)[C@@H](C)O) [Compound 102]
5 | 5.97 | Isovaleryl-APEK([Ahx-γGlu-C18 diacid])PEEDATQEELQRYYVSLRHYYNWLTRQRY-NH2 (SMILES CC(C)CC(=O)N[C@@H](C)C(=O)N1CCC[C@H]1C(=O)N[C@@H](CCC(=O)O)C(=O)N[C@@H](CCCCNC(=O)CCCCCNC(=O)CC[C@H](NC(=O)CCCCCCCCCCCCCCCCC(=O)O)C(=O)O)C(=O)N1CCC[C@H]1C(=O)N[C@@H](CCC(=O)O)C(=O)N[C@@H](CCC(=O)O)C(=O)N[C@@H](CC(=O)O)C(=O)N[C@@H](C)C(=O)N[C@H](C(=O)N[C@@H](CCC(N)=O)C(=O)N[C@@H](CCC(=O)O)C(=O)N[C@@H](CCC(=O)O)C(=O)N[C@@H](CC(C)C)C(=O)N[C@@H](CCC(N)=O)C(=O)N[C@@H](CCCNC(=N)N)C(=O)N[C@@H](Cc1ccc(O)cc1)C(=O)N[C@@H](Cc1ccc(O)cc1)C(=O)N[C@H](C(=O)N[C@@H](CO)C(=O)N[C@@H](CC(C)C)C(=O)N[C@@H](CCCNC(=N)N)C(=O)N[C@@H](Cc1c[nH]cn1)C(=O)N[C@@H](Cc1ccc(O)cc1)C(=O)N[C@@H](Cc1ccc(O)cc1)C(=O)N[C@@H](CC(N)=O)C(=O)N[C@@H](Cc1c[nH]c2ccccc12)C(=O)N[C@@H](CC(C)C)C(=O)N[C@H](C(=O)N[C@@H](CCCNC(=N)N)C(=O)N[C@@H](CCC(N)=O)C(=O)N[C@@H](CCCNC(=N)N)C(=O)N[C@@H](Cc1ccc(O)cc1)C(N)=O)[C@@H](C)O)C(C)C)[C@@H](C)O) [Compound 105]
6 | 4.23 | Isovaleryl-APEK([Ahx-γGlu-C18 diacid])PEEDATPEEIQRYYLSLRHYYNWLTRQRY-NH2 (SMILES CC[C@H](C)[C@H](NC(=O)[C@H](CCC(=O)O)NC(=O)[C@H](CCC(=O)O)NC(=O)[C@@H]1CCCN1C(=O)[C@@H](NC(=O)[C@H](C)NC(=O)[C@H](CC(=O)O)NC(=O)[C@H](CCC(=O)O)NC(=O)[C@H](CCC(=O)O)NC(=O)[C@@H]1CCCN1C(=O)[C@H](CCCCNC(=O)CCCCCNC(=O)CC[C@H](NC(=O)CCCCCCCCCCCCCCCCC(=O)O)C(=O)O)NC(=O)[C@H](CCC(=O)O)NC(=O)[C@@H]1CCCN1C(=O)[C@H](C)NC(=O)CC(C)C)[C@@H](C)O)C(=O)N[C@@H](CCC(N)=O)C(=O)N[C@@H](CCCNC(=N)N)C(=O)N[C@@H](Cc1ccc(O)cc1)C(=O)N[C@@H](Cc1ccc(O)cc1)C(=O)N[C@@H](CC(C)C)C(=O)N[C@@H](CO)C(=O)N[C@@H](CC(C)C)C(=O)N[C@@H](CCCNC(=N)N)C(=O)N[C@@H](Cc1c[nH]cn1)C(=O)N[C@@H](Cc1ccc(O)cc1)C(=O)N[C@@H](Cc1ccc(O)cc1)C(=O)N[C@@H](CC(N)=O)C(=O)N[C@@H](Cc1c[nH]c2ccccc12)C(=O)N[C@@H](CC(C)C)C(=O)N[C@H](C(=O)N[C@@H](CCCNC(=N)N)C(=O)N[C@@H](CCC(N)=O)C(=O)N[C@@H](CCCNC(=N)N)C(=O)N[C@@H](Cc1ccc(O)cc1)C(N)=O)[C@@H](C)O) [Compound 97]

— US20260015399A1 (Boehringer Ingelheim, published 2026)
